Measured values: US20240301068A1 (BEIJING HANMI PHARMACEUTICAL, published 2024)

How the values were obtained:
[1] = biological target: T1, recombinant human PD-L1 (Sino Biological Inc.) (human, UniProt Q9NZQ7 19-239); test: SPR, Biacore X100
Procedure: This instrument utilizes optical surface plasmon resonance technology to detect the association and dissociation between the molecules coated on the biochip and the molecules to be tested. Association constants and dissociation constants were analyzed and calculated by Biacore X100 evaluation software. […]

[2] = biological target: T1, recombinant human PD-L1 (Sino …); test: ELISA, human PD-L1 coated
Procedure: (§1) A 96-well high-adsorption ELISA plate was coated with 1 μg/mL of the recombinant human PD-L1 (Sino Biological Inc.) at 100 μL per well using carbonate buffer solution, pH=9.6 at 4° C. overnight. The plate was washed 5 times with PBST, and then blocked using PBST with 1% BSA, 300 μL/well, and incubated at 25° C. for 1 hour, and then washed 5 times with PBST. […] The horseradish peroxidase-labeled anti-human IgG antibody (Chemicon, catalog number AP309P) diluted 1:10000 in PBST with 1% BSA was then added, 100 μL per well, and incubated at 25° C. for 1 hour. The plate was washed 5 times with PBST. The colorimetric substrate TMB was added, 100 μL/well, and developed at room temperature for 10 minutes. 1M H₂SO₄ was added, 100 μL/well, to stop the development. The absorbance at 450 nm was read on a microplate reader.

[3] = biological target: T2, recombinant human PD-L1-Fc protein (human, UniProt Q9NZQ7 19-238, limits assumed); test: competition ELISA: PD-L1-Fc coated, competitor biotin-labelled PD-1-Fc
T2 construct: Prepared by Beijing Hanmi Pharmaceutical; The GenBank number is NP_001254635.1
T2 sequence (Q9NZQ7 19-238 limits assumed): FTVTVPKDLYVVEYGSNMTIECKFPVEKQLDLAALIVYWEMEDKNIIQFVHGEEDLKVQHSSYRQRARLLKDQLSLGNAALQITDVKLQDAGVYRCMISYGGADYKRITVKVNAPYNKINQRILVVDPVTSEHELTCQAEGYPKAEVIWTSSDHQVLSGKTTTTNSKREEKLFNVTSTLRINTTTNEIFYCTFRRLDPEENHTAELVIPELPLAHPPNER
Procedure: as §1, with “PD-L1-Fc” for “PD-L1 (Sino Biological Inc.)”, “Streptavidin-HRP (BD Pharmingen,” for “horseradish peroxidase-labeled anti-human IgG antibody (Chemicon,”, “554066)” for “AP309P)”, “1:1000” for “1:10000”

[4] = biological target: T1, recombinant human PD-L1 (Sino …); test: ELISA, plate coated with 1 ug/mL recombinant human PD-L1, anti-human IgG-HRP, OD450
Procedure: (§2) A 96-well high-adsorption ELISA plate was coated with 1 μg/mL of the recombinant human PD-L1, cynomolgus PD-L1, rat PD-L1 and mouse PD-L1 (all purchased from Sino Biological Inc.), at 100 μL per well using carbonate buffer solution, pH=9.6 at 4° C. overnight. The plate was washed 5 times with PBST, and then blocked using PBST with 1% BSA, 300 μL/well, and incubated at 25° C. for 1 hour, and then washed 5 times with PBST. The chimeric anti-human PD-L1 antibody samples serially diluted in PBST with 1% BSA were added, 100 μL/well, incubated at 25° C. for 1 hour, and then washed 5 times with PBST. The horseradish peroxidase-labeled anti-human IgG antibody (Chemicon, catalog number AP309P) diluted 1:10000 in PBST with 1% BSA was then added, 100 μL per well, and incubated at 25° C. for 1 hour. The plate was washed 5 times with PBST. The colorimetric substrate TMB was added, 100 μL/well, and developed at room temperature for 10 minutes. 1M H₂SO₄ was added, 100 μL/well, to stop the development. The absorbance at 450 nm was read on a microplate reader.

[5] = biological target: recombinant mouse PD-L1 (Sino Biological Inc.) (mouse, UniProt Q9EP73 19-238); test: ELISA, plate coated with 1 ug/mL recombinant mouse PD-L1, anti-human IgG-HRP, OD450
recombinant mouse PD-L1 (Sino Biological Inc.), sequence (Q9EP73 19-238 limits assumed): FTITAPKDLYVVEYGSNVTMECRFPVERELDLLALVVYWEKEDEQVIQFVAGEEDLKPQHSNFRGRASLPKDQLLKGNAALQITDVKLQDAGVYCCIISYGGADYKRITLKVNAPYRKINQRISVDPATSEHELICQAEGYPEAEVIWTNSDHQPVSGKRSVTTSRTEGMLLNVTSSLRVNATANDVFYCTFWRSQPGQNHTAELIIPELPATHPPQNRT
Procedure: as §2

[6] = biological target: recombinant cynomolgus PD-L1 (Sino Biological Inc.) (cynomolgus, UniProt G7PSE7 19-238); test: ELISA, plate coated with 1 ug/mL recombinant cynomolgus PD-L1, anti-human IgG-HRP, OD450
recombinant cynomolgus PD-L1 (Sino Biological Inc.), sequence (G7PSE7 entry or part of it limits assumed): as the sequence (Q9NZQ7 19-238 limits assumed) above, with A33T, A34S, S62N, R68Q, Q82R, F173L, T185A, T192I, H215L counted along it
Procedure: as §2

[7] = biological target: recombinant human CD28 (Sino Biological Inc.) (human, UniProt P10747 19-152); test: ELISA, plate coated with 1 ug/mL recombinant human CD28, anti-human IgG-HRP, OD450; antibody concentration not shown
Procedure: as §1, with “The” for “A 96-well high-adsorption ELISA plate was coated with 1 μg/mL of the recombinant human PD-L1 (Sino Biological Inc.) at 100 μL per well using carbonate buffer solution, pH=9.6 at 4° C. overnight. The”

[8] = biological target: T3, recombinant human CD86 (Sino Biological Inc.) (human, UniProt P42081 24-247, limits assumed); test: ELISA, plate coated with 1 ug/mL recombinant human CD86 (printed B7-2), anti-human IgG-HRP, OD450; antibody concentration not shown
T3 sequence (looked up): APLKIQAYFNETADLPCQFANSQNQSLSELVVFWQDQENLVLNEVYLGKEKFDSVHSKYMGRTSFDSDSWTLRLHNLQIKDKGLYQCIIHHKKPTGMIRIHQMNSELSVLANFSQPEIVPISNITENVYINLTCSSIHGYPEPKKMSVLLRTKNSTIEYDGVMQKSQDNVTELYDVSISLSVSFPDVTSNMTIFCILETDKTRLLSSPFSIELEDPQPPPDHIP
Procedure: as §1, with “The” for “A 96-well high-adsorption ELISA plate was coated with 1 μg/mL of the recombinant human PD-L1 (Sino Biological Inc.) at 100 μL per well using carbonate buffer solution, pH=9.6 at 4° C. overnight. The”

[9] = biological target: T2, recombinant human PD-L1-Fc protein; test: blocking ELISA, plate coated with 1 ug/mL human PD-L1-Fc; blocked ligand biotin-labelled PD-1-Fc at 20 nM final, streptavidin-HRP, OD450
Procedure: as §1, with “PD-L1-Fc” for “PD-L1 (Sino Biological Inc.)”, “Streptavidin-HRP (BD Pharmingen,” for “horseradish peroxidase-labeled anti-human IgG antibody (Chemicon,”, “554066)” for “AP309P)”, “1:1000” for “1:10000”

T1 sequence (Q9NZQ7 19-239 limits assumed): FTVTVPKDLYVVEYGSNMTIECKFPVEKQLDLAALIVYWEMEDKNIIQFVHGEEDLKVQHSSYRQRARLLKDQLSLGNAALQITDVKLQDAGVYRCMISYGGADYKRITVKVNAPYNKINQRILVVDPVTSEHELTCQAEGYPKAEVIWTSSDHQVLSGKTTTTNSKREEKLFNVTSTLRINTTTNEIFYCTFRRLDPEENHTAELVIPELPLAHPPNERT

Kd [1]: 0.63 nM
koff [1]: 0.000596 s⁻¹
kon [1]: 946000 M⁻¹ s⁻¹
EC50 [2]: 0.066 nM
IC50 [3]: 0.596 nM
EC50 [4]: 0.056 nM
EC50 [6]: 0.074 nM
binding result [7]: no binding
binding result [8]: no binding
IC50 [9]: 1.08 nM
B1: chimeric anti-human PD-L1 monoclonal antibody (antibody, human IgG1, kappa, V domains shown)
VH: EVQLQQSGAELVKPGASVKLSCTASGFNIEDTYIHWVMQRPEQGLEWIGRIDPANGNTKYDPKFQGKATITADTSSNTAYLQLSSLTSEDTAVYYCGRGLGAWFAYWGQGTLVTVSA
VL: DIVMTQSHKVMSTSVGDRVTITCKASQDVHTAVAWIHQKPGQSPKLLIYSASNRYTGVPDRFTGSGSGTDFTFTISSVQAEDLAVYYCQQHYITPLTFGAGTTLELKR
notes: expressed in ExpiCHO cells; also called Chimeric mAb; Chimeric antibody
binding result [5]: no binding (tested: about 20 nM (last point on the log axis))
